Measured values as given in the nanobody polyreactivity screen of Harvey et al. (2022).

Assay: yeast display, Sf9 membrane polyspecificity reagent, FACS + sequencing; frameworks hold sequencing errors
Method in brief: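 Polyreactivity labels are assigned by the sorting gate from which each nanobody was recovered. The gates were low and high (top ~1%), set on anti-HA fluorescence for expression and streptavidin fluorescence for reagent binding. Before sorting, galactose-induced (36–48 hours) yeast display cells were stained for 1 hour at 4 °C with 10% biotinylated, detergent-solubilized Sf9 membrane reagent.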

Question: With “QVQLVESGGGLVKAGGSLRLSCAASGRIFRYYAMGRYRQAPGKEREFVAAISTDGGRTYYADSVKGRFTISRDNAKNTVYLQMNSLKPEDTAVYYCAIYPGISGYNYWGQGTQVTVSS” as the sequence, how does the “polyreactivity (PSR sort gate)” value read?
Answer: Its value is “high polyreactivity”.

Question: With “QVQLVESGGGLVKAGGSLRLSCAASGRTFFRNAMGWYRQAPGKEREFVAAINSSGGSTYYADSVKGRFTISRDNAKNTVYFQMNSLKPEDTAVYYCARYHYPFYKPYGFGYWGQGTQVTVSS” as the sequence, how does the “polyreactivity (PSR sort gate)” value read?
Answer: Its value is “high polyreactivity”.

Question: With “QVQLVESGGGLVKAGGSLRLSCAASGSIYTNAMGWYRQAPGKERELVAAISWSGGRTYYADSVKGRFTISRDNAKNTVYLQINSLKPEDTAVYYCNPRGTRIASGHYYWGQGTLVTVSS” as the sequence, how does the “polyreactivity (PSR sort gate)” value read?
Answer: Its value is “high polyreactivity”.

Question: For “QVQLVESGGGLVKAGGSLRLSCAASGSTFPLYAMGWYRQAPGKEREFVAAIRWIGGSTYYADSVKGRFTISRDNAKNTVYLQMNSLKPEDTAVYFCAADYVVSAFDYWGQGTQVTVSS”, which “polyreactivity (PSR sort gate)” value is on record?
Answer: The value was “low polyreactivity”.

Question: With “QVQLVESGGGLVKAGGSLRLSCAASGSTFYNYAMGWYRQAPGKERELVAAISTRGGSTYYADSVKGRFTISRDNAKNTVYLQMNSLKPEDTAVYYCAADGRGGHDDYWGQGTQVTVSS” as the sequence, how does the “polyreactivity (PSR sort gate)” value read?
Answer: Its value is “high polyreactivity”.

Question: Which “polyreactivity (PSR sort gate)” value does the source give for “QVQLVESGGGLVKAGGSLRLSCAASGSTIGGNAMVWYRQAPGKERELVASITRSGGSTYYADSVKGRFTISRDNAKNNVYLQMNSLKPEDSAVYYCAAGKWYRSPWKYDYWGQVTQVTVSS” here?
Answer: Its value is “low polyreactivity”.

Question: For “QVQLVESGGGLVKAGGSLRLSCAASGSTSQVNDMGWYRQAPGTERELVGAISSTGDRTYYADSVKGRFTISRDNAKNNVYLQMNSLKPDDTAVYYCANDPFPFPCGDYWGQGTQVTVSS”, which “polyreactivity (PSR sort gate)” value is on record?
Answer: Its value is “low polyreactivity”.

Question: Which “polyreactivity (PSR sort gate)” value does the source give for “QVQLVESGGGLVKAGGSLRLSCAASGYTFGKYAMGWYRQAPGKERELVAAISWSGGSTYYADSVKGRFRISRDNAKNTVYLQMNSLKPEDTAVYYCNKGYFGRYGYWGQGTQVTVSS” here?
Answer: The value was “high polyreactivity”.

Question: With “QVQLVESGGGLVKAGGSLRLSCASSGRIFRYYTMGWYRQAPGKERELVAAISTSDDSTNYADSVKGRFTISRDNAKNTVYLQMNSLKPEDTAVYYCAADQSRVGSYQDYDYWGQGTQVTVSS” as the sequence, how does the “polyreactivity (PSR sort gate)” value read?
Answer: The value was “low polyreactivity”.

Question: For “QVQLVESGGGLVKARGSLLLSCAASGFTFPYNAMGWYRQAPGKDRELVAAISWSGGSTYYADSVKGRFTLSRDNAKNTVYLQMNSLKPEDTAVYYCAASYWWIPMEYWGQVTQVTVSS”, which “polyreactivity (PSR sort gate)” value is on record?
Answer: Its value is “high polyreactivity”.

Question: For “QVQLVESGGGLVKARGSLRLSCAASGFTFGSYAMGWYRQAPGKERELVAAITRGSGGTYYADSVKGRFTISRDNAKNTVYVQMNSLKPEDTAVYNCASCSRSRGALRFAHFDYWGQGTQGTVSS”, which “polyreactivity (PSR sort gate)” value is on record?
Answer: Its value is “high polyreactivity”.

Question: For “QVQLVESGGGLVLAGGRLRLSCAASGSTFGYYAMGWYRQAHGKERELVAAISQGAGRTYYADSVKGRFTISRDNAKNTDYLQMNSLKPEDSAVYYFAASVTVHRWAYGYWGQGTQVTVSS”, which “polyreactivity (PSR sort gate)” value is on record?
Answer: The value was “high polyreactivity”.

Question: For “QVQLVESGGGLVLAGGSLRLSCAASGGTFARYAMGWYRQAPGKERELVAAISRGGSTNYADSVKGRFTISRDNAKNTVYLQMNSLKPEDTAVYYCAAGSRRAAWYDYSYPYGYWGQGTQVTVSS”, which “polyreactivity (PSR sort gate)” value is on record?
Answer: The value was “high polyreactivity”.

Question: Which “polyreactivity (PSR sort gate)” value does the source give for “QVQLVESGGGLVLAGGSLRLSCAASGRIFIGNAMGWYRQAPGKERELVAAISKRGGSTYYADSVKGRFTISRDNAKNTVYLQMISLKPEDTAVYYCNKEPLYREFDYWGQGTQVTVSS” here?
Answer: The value was “low polyreactivity”.

Question: For “QVQLVESGGGLVLAGGSLRLSCAASGRIFLRNAMGWYRQAPGKVRELVATITSRGGSTYYADSVKGRFTISRDKAKNTVYLQMNSLKPEDTAVYYCAADPRRYRGFGYVYGGFYYWGQGTQVTVSS”, which “polyreactivity (PSR sort gate)” value is on record?
Answer: The value was “low polyreactivity”.

Question: With “QVQLVESGGGLVLAGGSLRLSCAASGRIFTNNVMGWYRQAPGKERELVAAISRSGGRTYYADSVKGRFTISRDNAKNTVYLQMNSLKPEDTAVYYCAAVYQKAATDKYESVYESYYWGQGTQVTVSS” as the sequence, how does the “polyreactivity (PSR sort gate)” value read?
Answer: The value was “high polyreactivity”.

Question: Which “polyreactivity (PSR sort gate)” value does the source give for “QVQLVESGGGLVLAGGSLRLSCAASGRSFVSNALGWSRQAPGSDRELVARISNGASTDADSVKGRFTISRDNAKKTVYLQINSLKPEDTAVYYSAKTTRRGGVALGEYDYWGQLTQVTVSS” here?
Answer: Its value is “low polyreactivity”.

Question: For “QVQLVESGGGLVLAGGSLRLSCAASGRTFRSYAMGWYRQAPGKERELVAAISSGGSTNYADSVKGRFTISRDNAKNTVYLQMNSLKPEDTAVYYCAATFQLYRFIGYEYWGQGTQVTVSS”, which “polyreactivity (PSR sort gate)” value is on record?
Answer: Its value is “high polyreactivity”.

Question: With “QVQLVESGGGLVLAGGSLRLSCAASGSIFQPNAMGWYRQAPGKERELVASIRGRGGDTYYADSVKGRFTISRDNAKNSVYLQMNSLKPEDTAVDYCAADYRWGQGTQVTVSS” as the sequence, how does the “polyreactivity (PSR sort gate)” value read?
Answer: Its value is “low polyreactivity”.

Question: Which “polyreactivity (PSR sort gate)” value does the source give for “QVQLVESGGGLVLAGGSLRLSCAASGSTFFSYMGWYREAPGKERELVAANTSGAITYYADSVKGRFTISRDNAKNTVYLQMNSLKPEDTAVYYCNTDRYYVTLRNLEMDYWGQGTQVTVSS” here?
Answer: The value was “low polyreactivity”.

Question: For “QVQLVESGGGLVLAGGSLRLSCAASRFILRDNGMGWNRKAPVKERELVAAISERGGRTDYADSVKGRFTISRDNAKNTVYLQMNSLKPEDTAVYYCAAEDIANFYYWGQGPQVTVSS”, which “polyreactivity (PSR sort gate)” value is on record?
Answer: The value was “high polyreactivity”.

Question: With “QVQLVESGGGLVLAGGSLRLSCADSGLILRLNAMGWYRQAPGKDRELVATINRGGSTNYADSVKGRFTISRDNAKNTVFLQMNSLNPEDTAVDYCNKARTSQYHHTYWRTYGYWGQGTQVTVSS” as the sequence, how does the “polyreactivity (PSR sort gate)” value read?
Answer: Its value is “low polyreactivity”.

Question: Which “polyreactivity (PSR sort gate)” value does the source give for “QVQLVESGGGLVLAGGSLRLSGAASGRISGYNVLGWARQAAGKERELVAAISGSGGSTYYADSVKGRFTISRDNAKNTVYLQMNSLKPEDTADYYCGKATGYPYDYWGHGTQVTVSS” here?
Answer: The value was “low polyreactivity”.

Question: For “QVQLVESGGGLVLAGGSLRLSSAASGSIFYRNAMGWYRQSPGKERQLVATITVNGGRTYYADSVKGRFTISRDIAKNTVYLQMNSLKPEDTAVYYCAKDVHRWYPYDYCGQGTQVTVSS”, which “polyreactivity (PSR sort gate)” value is on record?
Answer: The value was “low polyreactivity”.

Question: For “QVQLVESGGGLVLAGVSLRLSCAASGSTFPYNAMGWYRQAPGKERELVAAITSRGGSTYYADSVKGRFTISRDNAKNTVYLQMNSLKPEDTAVYYCATPGDTYGWTRRRYYYWGQGTQVTVSS”, which “polyreactivity (PSR sort gate)” value is on record?
Answer: Its value is “high polyreactivity”.

Question: With “QVQLVESGGGLVNAGGSLRLSCAASGSTFYLYHMGWYRQAPGKEREFFARITWSGGSTYYADSVKGRFTLSRDNAKNTVYLQMNSLKPEDTAVYYCNKVYGQRNSYPDYDYWGQGSQVTVSS” as the sequence, how does the “polyreactivity (PSR sort gate)” value read?
Answer: Its value is “high polyreactivity”.

Question: For “QVQLVESGGGLVPAGGSLRLRCAASGSTFPYYAMGGYRQAPGKERELVAAIRRSGANTYYADSVKGRFTISRDNAKNTVYLQMNSLKPEDTAVYYCNVEYVISWWLYDYWGQGTQVTVSS”, which “polyreactivity (PSR sort gate)” value is on record?
Answer: Its value is “low polyreactivity”.

Question: With “QVQLVESGGGLVPAGGSLRLRCAASGYIFRQNAMGWYRQAPGKERELVAVITARGGSTYYADSVKGRFTISRDNEKNTVYLQMNSLKPEDTAVYYCNARYYRRQYRGGAYWGQGTQVTVSS” as the sequence, how does the “polyreactivity (PSR sort gate)” value read?
Answer: The value was “low polyreactivity”.

Question: With “QVQLVESGGGLVPAGGSLRLSCAASGFIFGGYAMGWYRQAPGKERELVADITTSGDSTYYADSVKGRFTISRDNAKNTVYLQMNSLKPEDTAVYYCNAKRSFRWTYGYWGQGTQVTVSS” as the sequence, how does the “polyreactivity (PSR sort gate)” value read?
Answer: Its value is “high polyreactivity”.

Question: Which “polyreactivity (PSR sort gate)” value does the source give for “QVQLVESGGGLVPAGGSLRLSCAASGFTFNSNAMGWYRQAPGKERELVAAISGSGGRTYYADSVKGRFTISRDNAKNTVYLQRNSLKPEDTAVYYCAADYPVRSYDYWGQGTQVTVSS” here?
Answer: Its value is “low polyreactivity”.

Question: With “QVQLVESGGGLVPAGGSLRLSCAASGNIYRYYVMGWYRQAPGKEREFVAAITSSGGSTYYADSVKGRFTISRDNAKNTVYLQMNSLKPEDTAVYYCAKDYWDPGWAEYDDWGQGTQVTVSS” as the sequence, how does the “polyreactivity (PSR sort gate)” value read?
Answer: The value was “low polyreactivity”.

Question: Which “polyreactivity (PSR sort gate)” value does the source give for “QVQLVESGGGLVPAGGSLRLSCAASGNNFRANTMGWYRQARGKERELVASIRRSGGSSYYADSVKGRFTISRDNAKNTVYLQMNSLKPEDTAAYYCAAESRPPYTDNYYWGQGTQVTVSS” here?
Answer: The value was “high polyreactivity”.

Question: For “QVQLVESGGGLVPAGGSLRLSCAASGRTLGYNAMGWYRQAPGKERELVAAISRGDSTNYADSVKGRFTISRDNAKNTVYLQMNSLKPEDTAVYYCAAAFPRYRSRAIRVDYWGQGTQVTVSS”, which “polyreactivity (PSR sort gate)” value is on record?
Answer: The value was “high polyreactivity”.

Question: For “QVQLVESGGGLVPAGGSLRLSCAASGSIFVKYALGRYRPAPGKERELVAAISRSGTRTYYADSVKGRFTISRDNAKNTVYLQMNSLKPEDTAVYYCAAAATTVRPYEYWGQGTQVTVSS”, which “polyreactivity (PSR sort gate)” value is on record?
Answer: The value was “high polyreactivity”.

Question: With “QVQLVESGGGLVPAGGSLRLSCAASGSNFYWYVMGWYRQAPGKERELVADIRYSPGRTYYADSVKGRFTISRDNAKNTVYLQMNSLIPEDTAVYYCKARRRLFTVDFDYWGQGTQVTVSS” as the sequence, how does the “polyreactivity (PSR sort gate)” value read?
Answer: The value was “high polyreactivity”.

Question: Which “polyreactivity (PSR sort gate)” value does the source give for “QVQLVESGGGLVPAGGSLRLSCAASGSTFKIYAMGWYRQAPGKERELVARITSGGSTNYADSVKGRFTISRDNAKNTVYLQMNSLKPDDTAVYYCAARRWSYSTRGQRSTNLDYWGQGTQVTVSS” here?
Answer: The value was “high polyreactivity”.

Question: With “QVQLVESGGGLVPAGGSLRLSCAASGSTFPGYAMGWYRQAPGQERELVAAISTSGGRTYYADSVKGRFTISRDNAKNTVYLQMNSLKPEDTAVYYCARVAFYVAHGGFAFGRYYYWGQGTQVTVSS” as the sequence, how does the “polyreactivity (PSR sort gate)” value read?
Answer: The value was “low polyreactivity”.

Question: With “QVQLVESGGGLVPARGSLRLSCAASGFTFYRYAMGCYRQAPGKERELVAAITSRSGITYYADSVKGRFTISRDNAKNTVYLQMNSLKPEDTAVYYCAAYVYRSTEFDYGYWGQGTQVTVSS” as the sequence, how does the “polyreactivity (PSR sort gate)” value read?
Answer: Its value is “high polyreactivity”.

Question: With “QVQLVESGGGLVPARGSLRLSCAASGIILRGYAMGWYRQSPGKERELVAAITYRGSSTYYADSVKGSFTISRDNAKNTVYLQMNSLKPEDTAVYYCGADRWLYAVITAGGGYWGQGTQVTVSS” as the sequence, how does the “polyreactivity (PSR sort gate)” value read?
Answer: The value was “high polyreactivity”.

Question: Which “polyreactivity (PSR sort gate)” value does the source give for “QVQLVESGGGLVQAAASLRLSCPASGSTFRFYTMALYIQSPGTESDLVAAITRRGGITFYSDSVKWRFTISRDNAKNTVYLHMNSLKPEDTAVYDCAARFAYWGQDYYFWGQGSQVTVSS” here?
Answer: The value was “high polyreactivity”.

Question: Which “polyreactivity (PSR sort gate)” value does the source give for “QVQLVESGGGLVQAAGSLPLSCAASGSTLLNYAMGWYRQAPGKQSQLVAAISSSGGRTYYADSVKGRFTISRDNAKNTVYLQMNSLKPEDTAVYYCNKGLGYPKTFGYWGQGTQVTVSS” here?
Answer: The value was “high polyreactivity”.
